Changes are numbered by the printed parent chain.
B1: Chimeric 1D9 antibody (antibody, V domains shown)
VH: QVQLQQPGAELVRPGTSVKLSCKASGYTFTSYWMHWVKQRPGQGLEWIGVIDPSDGYSHYNQKFKGKATLTVDTSSSTAYMQLSSLTSEDSAVYYCAGGLAGTLDYWGQGTTLTVSS
VL: DVLMTQTPLSLPVSLGDQASISCRSSQSIVHSSGNTYLQWFLQKPGQSPKLLISKVSNRFSGVPDRFSGSGSGTDFTLRISRVEAEDLGLYYCFQGSHVPWTFGGGTKLEIK
notes: Murine VH fused to human IgG1 CH1-Fc, murine VL fused to human CK; also called Ch1D9; ch1D9
B2: Humanized 1D9 RR antibody (H6L2) (antibody, human IgG1, V domains shown)
VH: QVQLVQSGAEVKKPGASVKVSCKASGYTFTSYWMHWVRQAPGQGLEWMGVIDPSDGYSHYNQKFKGKVTLTVDTSISTAYMELSRLRSDDTAVYYCAGGLAGTLDYWGQGTTVTVSS
VL: DIQMTQSPSSLSASVGDRVTITCRSSQSIVHSSGNTYLQWFQQKPGKAPKLLIYKVSNRFSGVPSRFSGSGSGTDFTLTISSLQPEDFAVYYCFQGSHVPWTFGQGTKLEIKRR
notes: Human IgG1; also called 1D9 H6L2 RR antibody; h1D9 RR wt
B3: 1D9 H6L0 RR antibody (antibody, V domains shown)
VH: B2 VH
VL: DIQMTQSPSSLSASVGDRVTITCRSSQSIVHSSGNTYLQWYQQKPGKAPKLLIYKVSNRFSGVPSRFSGSGSGTDFTLTISSLQPEDFAVYYCFQGSHVPWTFGQGTKLEIKR
notes: Humanized RR variant
B4: 1D9 H2L2 RR antibody (antibody, V domains shown)
VH: B2 VH with K67R, L70M, V72R
VL: B3 VL with Y41F
notes: Humanized RR variant
B5: 1D9 H0L7 RR antibody (antibody, V domains shown)
VH: B2 VH with K67R, L70M, V72R, G98R
VL: DVVMTQSPLSLPVTLGQPASISCRSSQSIVHSSGNTYLQWFQQRPGQSPRRLISKVSNRFSGVPDRFSGSGSGTDFTLKISRVEAEDVGVYYCFQGSHVPWTFGQGTKLEIKR
notes: Humanized RR variant; captured by anti-human Fc
B6: 1D9 H3L2 RR antibody (antibody, V domains shown)
VH: B2 VH with L70M, V72R, G98R
VL: B3 VL with Y41F
notes: Humanized RR variant
B7: 1D9 H6L4 RR antibody (antibody, V domains shown)
VH: B2 VH
VL: B3 VL with Q3L
B8: 1D9 H3L6 RR antibody (antibody, V domains shown)
VH: B2 VH with L70M, V72R, G98R
VL: B5 VL with S54Y
B9: 1D9 H6L9 RR antibody (antibody, V domains shown)
VH: B2 VH
VL: B5 VL with R50K, R51L
notes: Humanized RR variant
B10: 1D9 H6L5 RR antibody (antibody, V domains shown)
VH: B2 VH
VL: B3 VL with I2V, Q3L, Y41F, Y54S
notes: also called 1D9 116L5 RR antibody
B11: 1D9 H6L3 RR antibody (antibody, V domains shown)
VH: B2 VH
VL: B3 VL with I2V
notes: Humanized RR variant
B12: 1D9 H6L6 RR antibody (antibody, V domains shown)
VH: B2 VH
VL: B5 VL with S54Y
notes: To be rechecked
B13: 1D9 H0L9 RR antibody (antibody, V domains shown)
VH: B2 VH with K67R, L70M, V72R, G98R
VL: B5 VL with R50K, R51L
notes: Humanized RR variant; also called 1D9 HOL9 RR antibody
B14: 15D5 H3L1 antibody (antibody, V domains shown)
VH: QVQLVQSGAEVKKPGASVKVSCKASGYTFTDYNMNWVRQAPGQGLEWMGGINPNYGTTVYNQKFKGKATLTVDQSISTAYMELSRLRSDDTAVYYCARMTTIVPFDYWGQGTTVTVSS
VL: DIQMTQSPSSLSASVGDRVTITCRASQDISNYLNWYQQKPGKAPKLLIYYTSTLHSGVPSRFSGSGSGTDYTFTISSLQPEDIATYYCQQGYTLPWTFGGGTKVEIKR
notes: Humanized 15D5 variant
B15: 15D5 H1L1 antibody (antibody, V domains shown)
VH: B14 VH with V2F, T28S, R38K, M48I
VL: B14 VL
B16: 15D5 H1L3 antibody (antibody, V domains shown)
VH: B14 VH with V2F, T28S, R38K, M48I
VL: B14 VL with Y71F, F73L, I83F, G100Q, V104L
notes: Humanized 15D5 variant; also called 15D5 HIL3 antibody
B17: 15D5 H2L2 antibody (antibody, V domains shown)
VH: B14 VH with R38K, M48I
VL: B14 VL with F73L, I83F, G100Q, V104L
notes: Humanized 15D5 variant
B18: 15D5 H3L3 antibody (antibody, V domains shown)
VH: B14 VH
VL: B14 VL with Y71F, F73L, I83F, G100Q, V104L
notes: also called 15D5 H31.3 antibody
B19: 15D5 H4L3 (antibody, V domains shown)
VH: B14 VH with A68V, Q74T
VL: B14 VL with Y71F, F73L, I83F, G100Q, V104L
notes: To be rechecked
B20: 15D5 H2L1 antibody (antibody, V domains shown)
VH: B14 VH with R38K, M48I
VL: B14 VL
notes: Humanized 15D5 variant

molecular target: T1, Full-length human HER3 extracellular domain (ECD) (human, UniProt P21860 20-643); assay: affinity summary table, method not given
T1 construct: also called human HER3 ECD; HER-3 ECD full length
T1 sequence (P21860 20-643): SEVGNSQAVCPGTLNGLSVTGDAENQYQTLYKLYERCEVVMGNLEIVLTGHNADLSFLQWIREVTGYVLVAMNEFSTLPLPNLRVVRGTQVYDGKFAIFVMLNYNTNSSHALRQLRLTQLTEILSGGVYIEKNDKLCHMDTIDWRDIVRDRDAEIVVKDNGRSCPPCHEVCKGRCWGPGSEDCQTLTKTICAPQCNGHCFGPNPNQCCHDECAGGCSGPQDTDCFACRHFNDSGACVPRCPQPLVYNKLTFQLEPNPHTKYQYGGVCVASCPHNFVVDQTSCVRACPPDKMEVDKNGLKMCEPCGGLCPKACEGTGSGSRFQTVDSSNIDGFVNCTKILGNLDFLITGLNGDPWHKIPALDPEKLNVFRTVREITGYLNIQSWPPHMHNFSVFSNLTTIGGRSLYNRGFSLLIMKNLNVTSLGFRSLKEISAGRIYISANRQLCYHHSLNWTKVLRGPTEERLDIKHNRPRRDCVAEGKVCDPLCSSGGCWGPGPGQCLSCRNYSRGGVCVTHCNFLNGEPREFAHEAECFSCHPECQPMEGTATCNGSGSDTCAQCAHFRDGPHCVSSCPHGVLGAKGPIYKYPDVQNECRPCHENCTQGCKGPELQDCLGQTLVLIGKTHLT

Point of comparison: B2, Kd 4.1 nM. Against it:
- B1 — 4.1-fold lower, ~1 nM

molecular target: T2, Human HER3 ECD domain III (human, UniProt P21860 330-495); assay: affinity summary table, method not given
T2 construct: also called D3; Domain 3
T2 sequence (P21860 330-495): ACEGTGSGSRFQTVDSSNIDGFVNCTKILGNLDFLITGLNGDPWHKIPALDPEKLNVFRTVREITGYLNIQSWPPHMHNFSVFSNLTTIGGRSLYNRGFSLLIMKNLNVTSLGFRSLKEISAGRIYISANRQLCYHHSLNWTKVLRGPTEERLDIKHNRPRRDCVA

Point of comparison: B1, Kd 0.198 nM. Against it:
- B2 — 11-fold lower, 0.018 nM

molecular target: T1, Full-length human HER3 extracellular …; assay: BIACORE 2000 SPR, mAb captured, HER3 protein as analyte, 25 C
Method: (§1) Mouse monoclonal antibodies were analysed using rabbit anti-mouse (RAM) IgG (GE Healthcare BR-1008-38) covalently coupled to a BIACORE™ CM5 chip (GE HEalthcare BR-1000-14) by primary amine chemistry (NHS/EDC activated) (GE Healthcare amine coupling kit BR-1000-50). Chimeric and humanized competitor monoclonal antibodies were analyzed using anti-human, Fc specific monoclonal (GE Healthcare BR-1008-39) similarly coupled. Each chip was also prepared with a reference surface to which no capture reagent antibody is coupled. Sensorgrams for cycles run with differing analyte concentrations are acquired for kinetic analysis. A cycle consists of capturing the monoclonal on the surface, a short stabilization period with flowing run buffer followed by binding of a defined concentration of analyte (ECD or sub-domain protein). Injection of analyte for surface binding (3-4 minutes) yields the association part of curve. This is followed by buffer only flow (3-4 minutes) which allows recording of dissociation data.
(§2) The general method for affinity analysis is as follows. First, chips were prepared and tested for reasonance units (RU) captured for several monoclonal antibody concentrations. Kinetic cycles were then run in which monoclonal antibody was captured to a level of approximately 100RU, analyte protein was allowed to bind then dissociate and the surface was regenerated to remove all but covalently coupled protein. RAM chips were regenerated with capture kit supplied 100 mM glycine pH1.7 and anti-human chips with capture kit supplied 3M MgCl₂. […] Several buffer cycles were run prior to analyte protein to ensure cycle consistency and in some experiments a buffer cycle is used a “double reference[.]” Analytes used were human full length HER3 extra cellular domain (ECD), separate sub-domains of the extracellular portion of human HER3 (D1, D2, D3, D4), or combination HER3 domain proteins (D1-2 and D2-3).

In the case of B1, the Kd is reported as 1.1 nM.

B1 gave a kon of 740000 M⁻¹ s⁻¹.

molecular target: T2, Human HER3 ECD domain III; assay: as above
Method: as §1, §2

For B1, the Kd was 0.2 nM.

With B1 the kon was 4.58e+06 M⁻¹ s⁻¹.

molecular target: T1, Full-length human HER3 extracellular …; assay: BIACORE 3000 SPR, mAb captured by anti-human Fc, ECD as analyte, 25 C
Method: The binding kinetics of these antibodies for was assessed using a BIACORE™ 3000. Antibodies were captured on a CM5 biosensor chip to which an immobilized anti-human IgG (Fc specific) BIACORE™ (GE Healthcare cat# BR-1008-39) monoclonal antibody had been conjugated using supplied coupling buffer (9000 RU). Full-length human HER3 ECD concentrations were injected for 120s at a flow rate of 30 ul/min. Biosensor chips were regenerated as described in Example 1. Kinetics were determined by global fitting of data to the 1:1 Langmuir model using BIACORE™ Evaluation software. Analytical runs were carried out at 25° C. using FIBS-EP as the running buffer.
Buffer cycle and double referencing were performed as described in Example 1; and 5) Regenerate biosensor chips with BIACORE™ optimized buffers.

Point of comparison: B19, Kd 24.7 nM. Against it:
- B3 — 3.3-fold lower, 7.51 nM
- B4 — 1.8-fold lower, 13.4 nM
- B5 — 2.4-fold higher, 59.5 nM
- B6 — 2.4-fold higher, 59.4 nM
- B7 — 3.1-fold lower, 7.89 nM
- B2 — 6.2-fold lower, 3.96 nM
- B8 — 3.9-fold higher, 95.8 nM
- B9 — 7.4-fold lower, 3.35 nM
- B10 — 3.6-fold lower, 6.87 nM
- B11 — 6.3-fold lower, 3.91 nM
- B12 — 3.5-fold lower, 7.02 nM
- B13 — 1.5-fold higher, 38.1 nM
- B14 — 5.9-fold lower, 4.21 nM
- B15 — 3.4-fold lower, 7.19 nM
- B16 — 2.5-fold lower, 10 nM
- B17 — 1.9-fold lower, 12.8 nM
- B18 — 2.8-fold lower, 8.72 nM
- B20 — 2.8-fold lower, 8.7 nM

Point of comparison: B16, koff 0.000345 s⁻¹. Against it:
- B3 — 11-fold higher, 0.00366 s⁻¹
- B4 — 13-fold higher, 0.00444 s⁻¹
- B5 — 5.7-fold higher, 0.00195 s⁻¹
- B6 — 9.2-fold higher, 0.00316 s⁻¹
- B7 — 12-fold higher, 0.0041 s⁻¹
- B2 — 4.9-fold higher, 0.0017 s⁻¹
- B8 — 8.5-fold higher, 0.00292 s⁻¹
- B9 — 6.5-fold higher, 0.00223 s⁻¹
- B10 — 11-fold higher, 0.00371 s⁻¹
- B11 — 8.8-fold higher, 0.00302 s⁻¹
- B12 — 14-fold higher, 0.00487 s⁻¹
- B13 — 42-fold higher, 0.0144 s⁻¹
- B14 — 2-fold lower, 0.000171 s⁻¹
- B15 — within 1.5-fold, 0.000267 s⁻¹
- B17 — 12-fold higher, 0.00407 s⁻¹
- B18 — within 1.5-fold, 0.000367 s⁻¹
- B19 — 2.7-fold higher, 0.000935 s⁻¹
- B20 — within 1.5-fold, 0.000365 s⁻¹

Point of comparison: B4, kon 331000 M⁻¹ s⁻¹. Against it:
- B3 — within 1.5-fold, 487000 M⁻¹ s⁻¹
- B5 — 10-fold lower, 32700 M⁻¹ s⁻¹
- B6 — 6.2-fold lower, 53300 M⁻¹ s⁻¹
- B7 — 1.6-fold higher, 519000 M⁻¹ s⁻¹
- B2 — within 1.5-fold, 430000 M⁻¹ s⁻¹
- B8 — 11-fold lower, 30400 M⁻¹ s⁻¹
- B9 — 2-fold higher, 665000 M⁻¹ s⁻¹
- B10 — 1.6-fold higher, 540000 M⁻¹ s⁻¹
- B11 — 2.3-fold higher, 773000 M⁻¹ s⁻¹
- B12 — 2.1-fold higher, 694000 M⁻¹ s⁻¹
- B13 — within 1.5-fold, 377000 M⁻¹ s⁻¹
- B14 — 8.2-fold lower, 40500 M⁻¹ s⁻¹
- B15 — 8.9-fold lower, 37100 M⁻¹ s⁻¹
- B16 — 9.6-fold lower, 34400 M⁻¹ s⁻¹
- B17 — within 1.5-fold, 317000 M⁻¹ s⁻¹
- B18 — 7.9-fold lower, 42100 M⁻¹ s⁻¹
- B19 — 8.7-fold lower, 37900 M⁻¹ s⁻¹
- B20 — 7.9-fold lower, 41900 M⁻¹ s⁻¹

Reference: patent US20130156779A1 (GlaxoSmithKline, published 2013)
